Experiments:
[1] = Plasma concentration of 3H-labeled complexes in tumor-bearing rats (AUC); format: in vivo, female Wistar rats; conditions: 10 mg/Kg; for AUCo-oo in Plasma: carotids; for increase of retention in blood compared with the referential complexes (AUC): ratio to referential complexes
Procedure: Thus, the complexes which were obtained as the final products of Examples 17, 18 and 19 above and had the polyethylene glycol (PEG) contents of 6%, 21% and 43%, respectively, and of which the MTX portions were labelled with ^3 H, were prepared and employed as the ^3 H-labeled test compounds for use as Test Samples 1, 2 and 3. Further, the complexes same as those above-mentioned complexes except that the PEG portion was eliminated therefrom and the MTX portion was ^3 H-labeled, were also prepared and used as referential ^3 H-labeled compounds. In each of the complexes used as Test Samples 1, 2 and 3 and the complexes used as the referential complexes, the peptide chain which was bonded to the 2-amino group of the carboxymethylglucosamine unit of these tested complexes was Gly-Phe-Phe. The PEG portion present in the complexes as Test Samples 1, 2 and 3 was the PEG1 (molecular weight: 5,000) as described in Example 17.
In the following experiment, there were employed such tumor-bearing female Wistar rats which had received the subcutaneous transplantation of cancer cells, Walker 256, to an inguinal part and subsequently had been raised for 6 days. Each solution of the test sample was prepared for administration, by suitably diluting the ^3 H-labeled test sample complex with a solution of a corresponding non-radioactively labeled complex in physiological saline. Using three rats per group, the solution of the test sample was administered into the carotids of rats at a dose of 10 mg/Kg of the complex.
Under ether anesthesia, blood was sampled from the carotid of rats periodically at the ends of 30 minutes, 1 hour, 2 hours, 4 hours and 6 hours after the administration, and the blood was centrifuged to separate the plasma. Upon elapsed time of 24 hours after the administration, blood was collected from rats under ether enesthesia until the rats were sacrificed under exsanguination. Several tissues and organs were separated from the sacrificed rats. After weighing the whole or some parts of the tissues and organs, their radioactivities were measured.
The radioactivity of the tissues separated was measured in the following manner. After each sample of tissue was collected in a combustion cone and was dried, the sample was combusted in an automatic sample-combusting apparatus ("ASC-113", ALOKA). The resulting ^3 H2 O was added to a scintillator ("AQUASOL-2", NEN) and then measured by liquid scintillation counter ("LSC-3600", ALOKA). The value of radioactivity so measured was calibrated by the external standard radiation source method.
The test results are presented in FIG. 29 and FIG. 30 of the accompanying drawings as well as in Table 1 given hereinafter. FIG. 29 is a graph showing time-dependent variations in the concentration of each sample complex present in the plasma as measured up to the end of 24 hours after the administration of the complex. FIG. 30 is a graph showing the distributions of each sample complex present in tissues of the rat body which are expressed as the concentration of the complex in term of the percentages on the basis of the dose of the complex.

Walker 256 = experiment: Concentration of 3H-labeled complexes in tumor (Walker 256) of rats; format: in vivo, female Wistar rats; conditions: 10 mg/Kg, carotids, 1440 min
Procedure: The radioactivity of the tissues separated was measured in the following manner. […] The resulting ^3 H2 O was added to a scintillator ("AQUASOL-2", NEN) and then measured by liquid scintillation counter ("LSC-3600", ALOKA). The value of radioactivity so measured was calibrated by the external standard radiation source method.

Sarcoma 180 = experiment: Concentration of 3H-labeled compound in cancer tissue (Sarcoma 180) of mice; format: in vivo, male ICR mice; conditions: 20 mg/Kg, caudal vein, up to 24 hours, FIG. 19
Excerpt: (§1) The N-acetylcarboxymethylchitosan--Gly-Gly-Gly--MTX complex of Example 2, in which the MTX portion had been ^3 H-labeled, was used as a test sample compound. In addition, an ^3 H-labeled product of the partially N-acetylated carboxymethylchitosan as obtained in the course of the process of Example 1 was employed as a referential sample.
(§2) In the following experiment, there were employed tumor-bearing male ICR mice which had received subcutaneous implantation of Sarcoma 180 and subsequently had been raised for 10 days. The test sample compound was dissolved in physiological saline. Using three mice per group, the solution of the test sample compound was administered at a dose of 20 mg/Kg through the caudal vein. At the ends of 15 minutes, 30 minutes, 1 hour, 2 hours, 6 hours and 24 hours after the administration, the femoral artery and femoral vein of the mice of the respective groups were cut to collect blood samples. The radioactivity of a serum sample, which had been obtained by centrifuging each of the blood samples, and the radioactivity of a cancer tissue taken from the corresponding mouse were measured by the combustion method. In this way, the concentrations of the test sample compound present in the serum and the cancer tissue were evaluated.
(§3) The test results are plotted in FIGS. 18 and 19 of the accompanying drawings. […]

[2] = Serum concentration of 3H-labeled compound after i.v. administration in tumor-bearing mice; format: in vivo, male ICR mice; conditions: 20 mg/Kg, caudal vein, 15 minutes to 24 hours, FIG. 18
Excerpt: as §1, §2, §3

Substance | AUCo-oo in Plasma [1] | increase of retention in blood compared with the referential complexes (AUC) [1] | Concentration of Sample in Tumor at end of 24 hrs (Walker 256) | concentration in cancer tissue versus simple polysaccharide (Sarcoma 180) | retention in blood versus simple polysaccharide referential sample [2]
N-acetylcarboxymethylchitosan-(PEG1)--Gly-Phe-Phe--MTX [Test Sample 1] | 20.85 % of dose · hr/ml | about 1.3 times | 0.22 % of dose/g | – | –
N-acetylcarboxymethylchitosan-(PEG1)--Gly-Phe-Phe--MTX [Test Sample 2] | 46.20 % of dose · hr/ml | about 3 times | 0.35 % of dose/g | – | –
N-acetylcarboxymethylchitosan-(PEG1)--Gly-Phe-Phe--MTX [Test Sample 3] | 45.52 % of dose · hr/ml | about 3 times | 0.44 % of dose/g | – | –
N-acetylcarboxymethylchitosan--Gly-Gly-Gly--MTX [Example 2] | – | – | – | can concentrate in a cancer tissue | comparable to or longer than the retention of the simple polysaccharide

Source: patent US5463022A, “N-acetylcarboxymethylchitosan derivatives and process for preparation thereof” (priority 1990, dated 1995)
